Assay: yeast display, Sf9 membrane polyspecificity reagent, FACS + sequencing; frameworks hold sequencing errors
Method in brief: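 Nanobodies came from a synthetic yeast display library in Saccharomyces cerevisiae BJ5465, induced with galactose for 36–48 hours and stained for 1 hour at 4 °C with 10% biotinylated, detergent-solubilized Sf9 membrane reagent. Cells were enriched on streptavidin microbeads and then FACS-sorted, with low and high (top ~1%) gates set on anti-HA fluorescence for expression and streptavidin fluorescence for reagent binding. Each polyreactivity label reflects the gate a clone came from. Genes were amplified by colony PCR, sequenced by MiSeq 2 × 250 and filtered by CDR length.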

Sequence | polyreactivity (PSR sort gate)
QVQLVESGGGLVQAGGSLRLSCAASGRIFIYNAKGWYRQAPGKERELVAAITSDGTTNYADSVKGRFTISRDNAKNTVYLQMNSLKPEDTAVYYCAVDPFGSLVTYDYWGQGTQVTVSS | low polyreactivity
QDQLVESGGGLVQAGGSLRLSFAASGSTFVRYAMVWYRQAPGKERELVAAISRSGGSTYYADSVKGRFTISRDNAKNTVYLQMNSLKPEDTAVYYCAARLVYSGRDRGYDYWGQGTQVTVSS | high polyreactivity
QVQLVESGGGLVQAGGSHRLSCAASGRTFGYYAMGWYRQAPGKEREFVAAISWSGGSTYYADTVKGRFTISRDNAKNTVYLEMNSLKPEYTAVYYCATDTTYYAGSWYGYWGQGTQVTVSS | low polyreactivity
QVQLVESVGGLVQAGGSLRLSCAASGFTFSSYSMGWYRQAPGKERELVAAITISGGRTYYADSVKGRFTISRDNAKNTVYLQMNSLKPEDTAVYYCAARYVEGQNHYGYRGQGTQVTVSS | high polyreactivity
QVQLVESGGGLVQAGCSLRLSCAASGRTFPPYAMGWYRQAPRKERELVAAISRRAGTTYYADSVKGRFTISRDNAKNTVYLQMNSLKPEDTAVYYCAALSESSSYGYWGQGTQVTVSS | low polyreactivity
QVQLVESGGGLVQAVGSLRLSCAPSGSLFPGYAMGWYRQAPGKERELVAAITFSGGSTYYADSVKGRFTISRDYAKQSVYLPMNSLKPEDTAVYYCAAPGWYGGYPSYYYWGQGTQVTVSS | low polyreactivity
QVQLVESGGGLVQAGGSLRLSCAASGFTFYGYTMGWYRQAPGKEREVVAAITSDGDTNYADSVKGRFTISRDNAKNNVYLQMNSLIPEDTAVYYCNADPGFFFYWWTGDYWGQGTQVTVSS | low polyreactivity
QVQLVESGGGLVQAGGSLRLSCAASGRILTTNAMGWYRQAPGKERELVAAITRSGGRTYYADSVKGRFTISRDNAKNTVYLQMNSLKPEDTAVYYCAAATSPGIYDYWGQGTQVTVSS | high polyreactivity
QVQLVESGGGLVQAGGSLRLSCAAPGYIFEFYAMGWYRQAPGKERELVAAISWRGGSTYADSVKGRFTISRDNAKNTVYLQMNSLKPEDTAVYYCNADVEGRYDWTENDYWGQGTQVTVSS | low polyreactivity
QLQLVESGGRLVQAGGSLRLSCAASGRIFYANAMGWYRQAPGKERELVAAISSGGSTYYADSVKGRFTISRDNAKNTVLLQMNSLKPEDTAVYYCAVYTHKKVRPEYDYWGQGTQVTVSS | low polyreactivity
QVQLVESGGGLVQAGGSLRLSCAPSGSIFEINAMGWYRQAPGKERELVAAITGSGGSTHYADSVKGRFTISRDNAKKTVYLEMNSLKPEDTAVYYCAAVQRYQYGYWGQGTQVTVSS | low polyreactivity
QVQLEESGGGLVQAGGSLRLSCAASGITFTLNAMGWYRQAPGKERELVATINRGTGTNYADSVKGRFTISRDNAKYTVYLQMNSLKPEVTAVYYCAADHRGEYDYWGQGTQVTVSS | low polyreactivity
QVQLVESGGGLVQAGGSLRISCAASGRIFYSNTMGWYRQAPGKEREVVARIDTGGGSTYADSVKGRFTISRDNAKKSVYLEMHSLKPADTAVYYCYKKGRWRSWGSTSLVSMDYWGQGTQVTVSS | low polyreactivity
QVQLVESGGRLFQAGGSLRLSCAASGRNFCRYVMGWYRQAPGKERELVATISSGGSTNYADSVKGRFTISRDNAKNTVYLQMNSMKTEVTAVYYSAAYIYDGFWVYPYYPYDYWGQGTQVTVSS | low polyreactivity
QVQLVESGGVLDPAGGSLRLSCAASGSTFISNAMRWYRQAPGKERELVATITYSDATTYYADSVKGRFTISRDNAKNTVYLQMNSLKPEDTAVYYCNTRFFRPLWGYNYWGQGTQVTVSS | low polyreactivity
QVQLVESGGGLVQAGGSHRLSCAASGSIFTAYALGWYRQATGKARELVAAIDVSGDSTYYADSVKGRFTISRDNAKKTVYLQMNSLKPEDTAVYYCKAEYRVNKEYDYWGQGTQVTVSS | low polyreactivity
QVQLVESGGCLVQAGCSHRLSCAASGSTFGHNAMGWYRQAPGKERELVAAISWSGGRTSYADSVKGRFTISRDHAKNTVYLQLNSLKPEDTAVYYCAARSWRKGDYWGQGTQVTVSS | high polyreactivity
QVQLVVSGGGLVHAGGSLRLSCAAYGFTVYKNTMGWYRQAPRKERELVAAISSSGSSTYYADTVKGRFTISRDNAKNTVYLQMNSLKPEDTAVYYCAAGRFAYHDDYWGQGTQVTVSS | high polyreactivity
QVQLVDSGGGLVQAGGRLRLSCDASGLTLYKNGLGWYRLEPVKERELFAVISRSGGRTYYADSVKGRFTISRDNAKNTVYLQFNSLKPEETAVYYCAARGIGPTKYDYLGQGTQVTVSS | high polyreactivity
QVQHVESGGGLVQAGGSLRLSCAASGRTFAGYAMGWYRQAPGKEWELVSGITRGVITNYADSVKGRFTISRDNAKNTVYLQMNSLKPEDTAVYSCNARTFPVRLYTPRYGYWGQGTQVTVSS | high polyreactivity
QVQLVESGGGLVQAGGSLRLSCAASGSTFSWYAMGWYRQAPGKERELVAAISYSGGTYYADSVKGRFTISRDNAKNTVYLQMNSLKPEDTAVYYCAALRTRYGYDYWGQGTQVTVSS | high polyreactivity

Sequence | polyreactivity (PSR sort gate)
QVQLVESGGGLVQAGGSLRLSCAASGLTFEHNAMGWYRQAPGKETEFVAVISWRGTSTYYADSVKGRFTISRDNAKNTVYLQMNSLKPEDTAVYYCATRYYGDDGYRYDHWGQGTQVTVSS | high polyreactivity
QVQLVESGGGLVQAGGSLRLSCAASGLIFGYNAMGWYRQAPGKERELVAAISWSGGRTYYADSVKGRFTISRDNAKNTVYLQMNSLKPEDTAVYYCAAVVRHSYFRDDHWGQGTQVTVSS | high polyreactivity
QVQLVESGGGLVQAGGSLRLSCAASGFTFRRYTMGWYRQAPGKERELVAAISGRGGRTYYADSVKGRFTISRDNSKNTVYLQMNSLNPEDTAVYYCAADTQYWQSSKYDYWGQGTQVTVSS | high polyreactivity
QVQLVESGGGLVQAGGSLRLSCAASGSIFTYYAMGWYRQAPGKERELVAAISLDGGSTYYADSVKGRFTISRDNAKNTVYLQMNSLKPEDTAVYYCAADYRFFPYTYLYDYWGQGTQVTVSS | low polyreactivity
QVQLVESGGGLVQAGGSLRLSCAASGRTLNWYAMGWYRQAPGKERELVAVINLSGGRTYYADSVKGRFTISRDNAKNTVYLQMNSLKPEDTAVYYCNAPSVWERSYEKYDYWGQATQVTVSS | low polyreactivity
QVQLVESGGGLVQAGGSLRLSCAASGSIFVTNAMGWYRQAPGKERELVAAISWSGDNTYYADSVKGRFTISRDNAKNTFYLQMNSLIPEDTAVYYCSTDVWYSYDYYYGDWGYEYWGQGTQVTVSS | high polyreactivity
QVQLVESGGGLVQAGGSLRLSCAASGLIFYLYAMGWYRQQPGKERELVARMSRGGSTNYADSVKGRFTISRDNAKNTVYLQLNSLKPEDTAVDYCAADWFVSLGEMYYWGQGTQGTVSS | low polyreactivity
QVQLQESGGGLVQAGGSLRLSCAASGTIFRFRYMGWHRQAPVKERELVAGINGGTTTYYADSVIGRFTISRDNAKNTVYLQMNSLKADDTAVYNCAAGASRLTYYDYWGQGTQVTVSS | low polyreactivity
QVQLVESGGGLVQAGGSLRLSCAASGIIFRPYAMGWYRQAPGKERELVAAITWSGTSTYYADSVKGRFTISRDNAKNTVYLQMNSLKPEDTAVYYCAATWSYGVSWYEYWGQGTQVTVSS | high polyreactivity
QVQLVESGGGLVQAGGSLRLSCAASGSIFAGYAMGWYRPAPGKERELVAAINWTGDSTYYADSVKGRFTISRDNAKNTVYLQMNSLKPEDTAVYYCAAIRRQKGLWDYYYWGQGTQVTVSS | low polyreactivity
QVQLVESGGGLVQAGGSLRISCAASGGTFVPYAMGRSRQAPGKERELVARISKRGGTTYYADSVKGRFTISRDIGKNTVYLQMNSLKPEDTAVYYCAAVLPARGYYWGLGTQVTVSS | high polyreactivity
QVQLVESGGGLVQAGGSLSLSCAASGSTYLDYTMGWYIQAPGKERELVAVISYRAGSTYYADSVKGRFTISRDNAKNTVYLLMHSLKPEDTAVYYCNADYYNYWRRRRYVWYESWGQGTQVTVSS | low polyreactivity
QVQLVESGGGLVQAGGSLRLSCAASGRTFSFYAMGWYRPAPGKERELVAAISSGTRTYYADSVKGRFTISRDNAKNTFYLQMNSLKPEDTAVYYCAARPKWTASWYYYWGQGTQVTVSS | high polyreactivity
QVQHVESVVGLVQAGGSLRLSCAASGSTFGPNAMGWSRQAPGKERELVAAITSGGRTYYADSVKGRFTISRDNAKNTVYLQMNSLKPEDTAVYYCAARVSVGVPRYEYWGQGTQVTVSS | high polyreactivity
QVQLVESGGGLVQAGGSLRLSCGASGFTFSPYAMGWYRQAPGKERELVAVISGGGSTYYADSVKGRFTISRDNAKNTVYLQMNSLKPEDTAGYYCAKRFYRSYYWGQGTQVTVSS | high polyreactivity
QVQLVESGGGLVQAGGSLRISCAASGSTFLYYAMGWYRQAPGKERELVAAISWDGGNTYYADSVKGRFTISRDNAKNTVYLQMNSLKPEDTAVYYFAAKHYGSYLYWFGSDYWGQGTQVTVSS | high polyreactivity
QVQLVESGGGLVQAGGSLRLICAASGSIFRGYTMGWYRQAPGKERELVATISWSGGSTYYADSVKGRFTISRDNAKNTVYLQMNSLKPEDTAVYYCAAVWYLGIPYDYWGQGTQVTVSS | high polyreactivity
QVQLVESGGGLVQAGGSLRLSCDASGSTFTFNDMGWYRQAPGKERELVAAITSGGSTTYADSVKGRFTISRDNAKNTVYLQMNSLKPEDTAVYYCAADYVYFYFYGYDSWGQGTQVTVSS | low polyreactivity
QVQLVESGGGLVQAGGSLRLSCAASGSTFRRYAMGWYRQAPGKEREISTSDGSTYYADSVKGRFTISRDNAKNTVYLQMNSLKPEDTAVYYCAADGYRQLIEDITDDYWGQGTQVTVSS | low polyreactivity
QVQLVDSGGGLVQAGGRLRLSCAASGFIFGRNAMGWYRQAPGKERELVAGISSSGVRTFYADSVKGRFTISRDNAKNTVYLQMNSLKPEDNAVYYCATRGRVYPTKYSLDEDYWGQGTQVTVSS | high polyreactivity

— the nanobody polyreactivity screen of Harvey et al. (2022)
